PMC11848572, “Expanding the Functions of KHSRP Protein: Insights into DNA G‐Quadruplex Binding”

T1: KHSRP130-503 (four KH domains) (Homo sapiens, UniProt Q92945 130-503)
T1 sequence: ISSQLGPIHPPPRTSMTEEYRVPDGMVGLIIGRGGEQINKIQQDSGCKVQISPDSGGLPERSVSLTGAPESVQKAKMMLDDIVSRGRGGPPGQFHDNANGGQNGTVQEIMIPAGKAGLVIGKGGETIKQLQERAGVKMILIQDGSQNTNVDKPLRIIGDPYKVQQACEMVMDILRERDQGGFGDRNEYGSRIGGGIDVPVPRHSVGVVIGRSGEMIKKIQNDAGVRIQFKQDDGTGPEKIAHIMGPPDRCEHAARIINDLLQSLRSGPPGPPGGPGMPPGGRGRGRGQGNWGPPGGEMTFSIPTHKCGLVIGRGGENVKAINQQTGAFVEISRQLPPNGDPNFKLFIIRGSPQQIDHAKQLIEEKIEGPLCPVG


Molecular target: T1, KHSRP130-503 (four KH domains)
Experiment: SPR; 25 C, single-cycle kinetics; SPR at 25 C, 1-20 uM G4 over immobilized protein (buffer not in the material); NMR at 25 C (298 K), protein in 5 mM KH2PO4/K2HPO4 pH 7.0, 20 mM KCl
Settings: protein: recombinant, tags: N-terminal His-tag (pET-28a), TEV-cleaved

Binder | Kd (parallel G4, intramolecular) | Kd (hybrid G4, intramolecular)
AGGGAGGGCGCTGGGAGGAGGG (structured_DNA) [c-Kit1] | 190 ± 90 nM | –
CGGGCGGGCGCTAGGGAGGGT (structured_DNA) [c-Kit2] | 56 ± 8 nM | –
TGAGGGTGGGTAGGGTGGGTAA (structured_DNA) [c-Myc] | 130 ± 25 nM | –
GGGCGCGGGAGGAATTGGGCGGG (structured_DNA) [Bcl-2] | – | 2000 ± 980 nM
TTGGGTTAGGGTTAGGGTTAGGGA (structured_DNA) [mTel24] | – | 1470 ± 480 nM
